Test results taken from PMC5834252, “Targeting scFv-Fc-scTRAIL fusion proteins to tumor cells” (Oncotarget, 2018).

Biological target: T1, Mouse TRAIL-R2-Fc (mouse, UniProt Q9QZM4 53-180)
T1 construct: mouse TRAIL-R2; Named in the materials only; source: bought: Sino Biological Inc. (50412-M03H)
Assay: ELISA; Fc fusion proteins of human and mouse TRAIL receptors coated (200 ng/well); 40 nM scTRAIL units; detected with anti-FLAG-HRP; relative OD450
Conditions: both partners purified

T1 sequence (Q9QZM4 53-180): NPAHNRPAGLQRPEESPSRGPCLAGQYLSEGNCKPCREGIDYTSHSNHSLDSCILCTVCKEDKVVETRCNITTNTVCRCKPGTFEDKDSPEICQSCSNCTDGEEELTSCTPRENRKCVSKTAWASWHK

binding result: binds
B1: Fc-scTRAIL (Fc fusion, human)
chain: GPQRVAAHITGTRGRSNTLSSPNSKNEKALGRKINSWESSRSGHSFLSNLHLRNGELVIHEKGFYYIYSQTYFRFQEEIKENTKNDKQMVQYIYKYTSYPDPILLMKSARNSCWSKDAEYGLYSIYQGGIFELKENDRIFVSVTNEHLIDMDHEASFFGAFLVGGGPQRVAAHITGTRGRSNTLSSPNSKNEKALGRKINSWESSRSGHSFLSNLHLRNGELVIHEKGFYYIYSQTYFRFQEEIKENTKNDKQMVQYIYKYTSYPDPILLMKSARNSCWSKDAEYGLYSIYQGGIFELKENDRIFVSVTNEHLIDMDHEASFFGAFLVGGGPQRVAAHITGTRGRSNTLSSPNSKNEKALGRKINSWESSRSGHSFLSNLHLRNGELVIHEKGFYYIYSQTYFRFQEEIKENTKNDKQMVQYIYKYTSYPDPILLMKSARNSCWSKDAEYGLYSIYQGGIFELKENDRIFVSVTNEHLIDMDHEASFFGAFLVG
notes: human TRAIL, first protomer of single-chain TRAIL (scTRAIL), amino acids 118-281; single glycine residue as linker between the TRAIL protomers; human TRAIL, second protomer of scTRAIL, amino acids 118-281; human TRAIL, third protomer of scTRAIL, amino acids 118-281; scTRAIL is fused to the C-terminus of the human gamma1 Fc; disulfide-linked dimer (hexavalent TRAIL); also called non-targeted …
